Values quoted from earlier work in paper PMC6667839.

Target: IL-33 112-270 (Homo sapiens) (UniProt O95760)
Sequence of UniProt O95760 (O95760 112-270): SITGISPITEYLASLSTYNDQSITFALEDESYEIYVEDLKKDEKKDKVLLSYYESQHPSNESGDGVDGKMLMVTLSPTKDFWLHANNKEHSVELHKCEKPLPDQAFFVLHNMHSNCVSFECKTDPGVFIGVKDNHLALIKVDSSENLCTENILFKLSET

Kd: 4 nM
Substance: sST2 (from UniProt Q01638)
